Measured values: the supplement of paper PMC9233669
This sample holds only a part of the variants without activity.

Assays:
biotinyl-Phe-oxazolone = test: self-aminoacylation, catalytic enhancement (BFO) (fold over background); higher = more active; k-Seq, kA / k0A0; sequences stand for … in GGGAAUGGAUCCACAUCUACGAAUUC…UUCACUGCAGACUUGACGAAGCUG
Outline: (§1)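 Mutagenized RNA pools (0.43 μM; 21-nt variable region) were treated with 2–1250 μM of each biotinyl-aminoacyl-oxazolone. Conditions were 50 μL HEPES/NaCl/KCl/MgCl2/CaCl2 buffer, 5% acetonitrile, pH 6.9–7.0, room temperature, 90 minutes. Catalytic enhancement, the median kA relative to the uncatalyzed rate, was derived from streptavidin capture, qPCR and Illumina sequencing.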

biotinyl-Ile-oxazolone = test: self-aminoacylation, catalytic enhancement (BIO) (fold over background); higher = more active; k-Seq, kA / k0A0; sequences stand for … in GGGAAUGGAUCCACAUCUACGAAUUC…UUCACUGCAGACUUGACGAAGCUG
Outline: as §1

biotinyl-Met-oxazolone = test: self-aminoacylation, catalytic enhancement (BMO) (fold over background); higher = more active; k-Seq, kA / k0A0; sequences stand for … in GGGAAUGGAUCCACAUCUACGAAUUC…UUCACUGCAGACUUGACGAAGCUG
Outline: as §1

biotinyl-Val-oxazolone = test: self-aminoacylation, catalytic enhancement (BVO) (fold over background); higher = more active; k-Seq, kA / k0A0; sequences stand for … in GGGAAUGGAUCCACAUCUACGAAUUC…UUCACUGCAGACUUGACGAAGCUG
Outline: as §1

biotinyl-Leu-oxazolone = test: self-aminoacylation, catalytic enhancement (BLO) (fold over background); higher = more active; k-Seq, kA / k0A0; sequences stand for … in GGGAAUGGAUCCACAUCUACGAAUUC…UUCACUGCAGACUUGACGAAGCUG
Outline: as §1

biotinyl-Trp-oxazolone = test: self-aminoacylation, catalytic enhancement (BWO) (fold over background); higher = more active; k-Seq, kA / k0A0; sequences stand for … in GGGAAUGGAUCCACAUCUACGAAUUC…UUCACUGCAGACUUGACGAAGCUG
Outline: as §1

Sequence	self-aminoacylation (biotinyl-Phe-oxazolone)	self-aminoacylation (biotinyl-Ile-oxazolone)	self-aminoacylation (biotinyl-Met-oxazolone)	self-aminoacylation (biotinyl-Val-oxazolone)	self-aminoacylation (biotinyl-Leu-oxazolone)	self-aminoacylation (biotinyl-Trp-oxazolone)
CCACACGUCAAGCAAUCGGAC [Fam1B.1 aminoacylation ribozyme variant]	0.667	1.53	1.14	2.03	1.36	0.681
CCACACGUCAAGCAAUCGGUG [Fam1B.1 aminoacylation ribozyme variant]	9.7	1.63	2.02	2.78	1.59	2.35
CCACACUAAAAGCAAUCGGUC [Fam1B.1 aminoacylation ribozyme variant]	0.761	0.867	0.688	0.959	0.677	0.746
CCACACUACAAGCAAUCGGUG [Fam1B.1 aminoacylation ribozyme variant]	31.8	3.62	4.92	2.85	6.9	5.03
CCACACUACAAGCAAUCUGUC [Fam1B.1 aminoacylation ribozyme variant]	0.747	0.496	0.271	0.566	0.49	0.353
CCACACUACAAGCGAUCGGUC [Fam1B.1 aminoacylation ribozyme variant]	0.866	1.09	0.977	1.29	1.24	1.03
CCACACUACAAGGAAUCGGUC [Fam1B.1 aminoacylation ribozyme variant]	0.823	1.01	0.84	1.03	0.947	0.681
CCACACUACAUGCAAUCGGUC [Fam1B.1 aminoacylation ribozyme variant]	0.877	0.737	0.743	0.888	0.762	0.812
CCACACUCCAAGCAAUCGGGC [Fam1B.1 aminoacylation ribozyme variant]	1.07	2.01	1.31	2.08	1.65	2.55
CCACACUCCAAGCAAUCGGUA [Fam1B.1 aminoacylation ribozyme variant]	0.936	1.15	0.699	1.34	1.27	1.25
CCACACUCCAAGCAAUCGGUC [Fam1B.1 aminoacylation ribozyme variant]	2.6	0.984	0.789	1.08	0.855	1.59
CCACACUCCAAGGAAUCGGUC [Fam1B.1 aminoacylation ribozyme variant]	1.46	1.35	1.32	1.31	1.08	1.34
CCACACUGCAAGCAAUCGGCC [Fam1B.1 aminoacylation ribozyme variant]	20.5	3.29	2.93	5.56	1.99	3.9
CCACACUGCAAGCAAUCGGUG [Fam1B.1 aminoacylation ribozyme variant]	31.5	3.4	4.9	3.12	7.11	5.82
CCACACUGCAAGGAAUCGGUC [Fam1B.1 aminoacylation ribozyme variant]	3.84	1.39	1.35	1.32	1.3	1.51
CCACACUGCCAGCAAUCGGUC [Fam1B.1 aminoacylation ribozyme variant]	2.23	1.5	1.36	1.58	1.47	1.39
CCACACUGUAAGCAAUCGGUC [Fam1B.1 aminoacylation ribozyme variant]	0.898	1.06	0.953	1.14	1.09	1.16
CCACACUUAAAGAAAUCGGUC [Fam1B.1 aminoacylation ribozyme variant]	0.562	0.754	0.734	0.785	0.749	0.679
CCACACUUAAAGCAAUCCGUC [Fam1B.1 aminoacylation ribozyme variant]	0.452	0.998	0.879	1.17	0.838	0.523
CCACACUUAAAGCCAUCGGUC [Fam1B.1 aminoacylation ribozyme variant]	0.617	0.992	0.801	1.11	0.913	1.06
CCACACUUCAAACAAUCGCUC [Fam1B.1 aminoacylation ribozyme variant]	1.32	1.1	0.869	1.33	1.29	0.765

Sequence	self-aminoacylation (biotinyl-Phe-oxazolone)	self-aminoacylation (biotinyl-Ile-oxazolone)	self-aminoacylation (biotinyl-Met-oxazolone)	self-aminoacylation (biotinyl-Val-oxazolone)	self-aminoacylation (biotinyl-Leu-oxazolone)	self-aminoacylation (biotinyl-Trp-oxazolone)
CCACACUUCAAACAAUCGGCC [Fam1B.1 aminoacylation ribozyme variant]	8.32	1.77	1.96	2.19	1.61	7.9
CCACACUUCAAACAAUCGGUA [Fam1B.1 aminoacylation ribozyme variant]	1.62	0.873	0.947	1.02	0.734	1.47
CCACACUUCAAACAUUCGGUC [Fam1B.1 aminoacylation ribozyme variant]	0.837	1.49	1.47	1.4	1.45	1.32
CCACACUUCAACCAAUCGGGC [Fam1B.1 aminoacylation ribozyme variant]	3.78	1.91	1.75	2.93	2.24	2.09
CCACACUUCAACCAAUCGGUA [Fam1B.1 aminoacylation ribozyme variant]	1.08	1.1	1.56	1.1	0.859	1.63
CCACACUUCAACCAAUCGGUC [Fam1B.1 aminoacylation ribozyme variant]	60.5	1.38	1.38	1.5	2.17	35.2
CCACACUUCAACCACUCGGUC [Fam1B.1 aminoacylation ribozyme variant]	0.849	1.18	1.24	1.28	1.1	0.978
CCACACUUCAACCCAUCGGUC [Fam1B.1 aminoacylation ribozyme variant]	0.791	1.34	1.11	1.72	1.24	1.04
CCACACUUCAAGAAAUCUGUC [Fam1B.1 aminoacylation ribozyme variant]	0.421	0.306	0.349	0.402	0.292	0.349
CCACACUUCAAGACAUCGGUC [Fam1B.1 aminoacylation ribozyme variant]	0.815	1	0.914	0.896	0.879	0.762
CCACACUUCAAGCAAACGAUC [Fam1B.1 aminoacylation ribozyme variant]	0.772	0.513	0.44	0.589	0.422	0.585
CCACACUUCAAGCAACCAGUC [Fam1B.1 aminoacylation ribozyme variant]	1.26	1.08	1.04	0.941	0.725	0.79
CCACACUUCAAGCAACCCGUC [Fam1B.1 aminoacylation ribozyme variant]	0.819	1.14	0.779	1.17	0.763	0.843
CCACACUUCAAGCAACCGGUG [Fam1B.1 aminoacylation ribozyme variant]	33.9	3.92	5.05	4	7.08	6.05
CCACACUUCAAGCAAGCGGAC [Fam1B.1 aminoacylation ribozyme variant]	0.42	0.959	1.16	1.15	0.794	0.604
CCACACUUCAAGCAAGCGGGC [Fam1B.1 aminoacylation ribozyme variant]	6.38	1.61	2.41	2.29	1.59	2.67
CCACACUUCAAGCAAGUGGUC [Fam1B.1 aminoacylation ribozyme variant]	0.777	0.441	0.43	0.611	0.449	0.536
CCACACUUCAAGCAAUAGUUC [Fam1B.1 aminoacylation ribozyme variant]	1.21	0.703	0.501	0.644	0.55	0.431
CCACACUUCAAGCAAUCCGAC [Fam1B.1 aminoacylation ribozyme variant]	0.729	0.612	0.516	0.703	0.586	0.28
CCACACUUCAAGCAAUCCGGC [Fam1B.1 aminoacylation ribozyme variant]	1.71	3.02	3.54	3.66	2.88	2.1
CCACACUUCAAGCAAUCCGUA [Fam1B.1 aminoacylation ribozyme variant]	0.597	0.876	0.668	1.04	0.927	0.837
